# Test results published in US20150299281A1 (ZEALAND PHARMA A S, published 2015).
# Numbered stars: 1 amine (or outer) side, 2 acyl side, 3 side chain; on linkers, the order of the positions; unused ones are H or OH. Square brackets hold non-standard residues; d marks the D form. Side chains are listed from the residue outwards. * marks the point of attachment. C16 diacid = O=C(O)CCCCCCCCCCCCCCC(=O)*; γGlu = O=C(O)[C@H](CCC(=O)[*:2])N[*:1]; 1Nal = N[C@@H](Cc1cccc2ccccc12)C(=O)O; Palmitoyl = CCCCCCCCCCCCCCCC(=O)*; Aib = CC(C)(N)C(=O)O
# T1: human GIP receptor (human, UniProt P48546 22-466)
# T1 sequence (looked up): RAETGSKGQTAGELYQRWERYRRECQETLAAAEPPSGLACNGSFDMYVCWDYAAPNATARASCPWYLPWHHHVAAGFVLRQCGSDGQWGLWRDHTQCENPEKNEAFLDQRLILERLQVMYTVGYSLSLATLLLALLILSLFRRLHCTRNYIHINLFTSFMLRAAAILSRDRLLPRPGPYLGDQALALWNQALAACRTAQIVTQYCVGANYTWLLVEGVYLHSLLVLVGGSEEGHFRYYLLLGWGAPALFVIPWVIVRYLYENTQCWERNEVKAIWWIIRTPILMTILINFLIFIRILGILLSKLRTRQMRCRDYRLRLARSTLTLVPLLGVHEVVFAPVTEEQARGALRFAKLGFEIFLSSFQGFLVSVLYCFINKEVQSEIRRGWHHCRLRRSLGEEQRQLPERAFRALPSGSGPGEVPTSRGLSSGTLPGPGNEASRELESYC
# Columns and labels:
# [1] = target: human GLP-1 receptor (human, UniProt P43220 24-463); assay: cell-based or functional assay
# [2] = target: T1, human GIP receptor; assay: cell-based or functional assay
Binder,"EC50, cAMP induction in HEK293 cells expressing human GLP-1 R [1]","EC50, cAMP induction in HEK293 cells expressing human GIP R [2]"
H-Y[Aib]EGTFTSDYSI[Aib]LDKK([γGlu-Palmitoyl])AQRAFVEWLLAQGPSSGAPPPS-NH2 (SMILES CCCCCCCCCCCCCCCC(=O)N[C@@H](CCC(=O)NCCCC[C@H](NC(=O)[C@H](CCCCN)NC(=O)[C@H](CC(=O)O)NC(=O)[C@H](CC(C)C)NC(=O)C(C)(C)NC(=O)[C@@H](NC(=O)[C@H](CO)NC(=O)[C@H](Cc1ccc(O)cc1)NC(=O)[C@H](CC(=O)O)NC(=O)[C@H](CO)NC(=O)[C@@H](NC(=O)[C@H](Cc1ccccc1)NC(=O)[C@@H](NC(=O)CNC(=O)[C@H](CCC(=O)O)NC(=O)C(C)(C)NC(=O)[C@@H](N)Cc1ccc(O)cc1)[C@@H](C)O)[C@@H](C)O)[C@@H](C)CC)C(=O)N[C@@H](C)C(=O)N[C@@H](CCC(N)=O)C(=O)N[C@@H](CCCNC(=N)N)C(=O)N[C@@H](C)C(=O)N[C@@H](Cc1ccccc1)C(=O)N[C@H](C(=O)N[C@@H](CCC(=O)O)C(=O)N[C@@H](Cc1c[nH]c2ccccc12)C(=O)N[C@@H](CC(C)C)C(=O)N[C@@H](CC(C)C)C(=O)N[C@@H](C)C(=O)N[C@@H](CCC(N)=O)C(=O)NCC(=O)N1CCC[C@H]1C(=O)N[C@@H](CO)C(=O)N[C@@H](CO)C(=O)NCC(=O)N[C@@H](C)C(=O)N1CCC[C@H]1C(=O)N1CCC[C@H]1C(=O)N1CCC[C@H]1C(=O)N[C@@H](CO)C(N)=O)C(C)C)C(=O)O) [Compound 32],0.018 nM,0.012 nM
H-Y[Aib]EGTFTSDYSIYLDKKAQRAFVNWLLA[Aib]KYG[1Nal]LDF-NH2 (SMILES CC[C@H](C)[C@H](NC(=O)[C@H](CO)NC(=O)[C@H](Cc1ccc(O)cc1)NC(=O)[C@H](CC(=O)O)NC(=O)[C@H](CO)NC(=O)[C@@H](NC(=O)[C@H](Cc1ccccc1)NC(=O)[C@@H](NC(=O)CNC(=O)[C@H](CCC(=O)O)NC(=O)C(C)(C)NC(=O)[C@@H](N)Cc1ccc(O)cc1)[C@@H](C)O)[C@@H](C)O)C(=O)N[C@@H](Cc1ccc(O)cc1)C(=O)N[C@@H](CC(C)C)C(=O)N[C@@H](CC(=O)O)C(=O)N[C@@H](CCCCN)C(=O)N[C@@H](CCCCN)C(=O)N[C@@H](C)C(=O)N[C@@H](CCC(N)=O)C(=O)N[C@@H](CCCNC(=N)N)C(=O)N[C@@H](C)C(=O)N[C@@H](Cc1ccccc1)C(=O)N[C@H](C(=O)N[C@@H](CC(N)=O)C(=O)N[C@@H](Cc1c[nH]c2ccccc12)C(=O)N[C@@H](CC(C)C)C(=O)N[C@@H](CC(C)C)C(=O)N[C@@H](C)C(=O)NC(C)(C)C(=O)N[C@@H](CCCCN)C(=O)N[C@@H](Cc1ccc(O)cc1)C(=O)NCC(=O)N[C@@H](Cc1cccc2ccccc12)C(=O)N[C@@H](CC(C)C)C(=O)N[C@@H](CC(=O)O)C(=O)N[C@@H](Cc1ccccc1)C(N)=O)C(C)C) [Compound 25],0.041 nM,0.12 nM
H-Y[Aib]EGTFTSDYSIYLDKK([γGlu-Palmitoyl])AQRAFVEWLLAQGPSSGAPPPS-NH2 (SMILES CCCCCCCCCCCCCCCC(=O)N[C@@H](CCC(=O)NCCCC[C@H](NC(=O)[C@H](CCCCN)NC(=O)[C@H](CC(=O)O)NC(=O)[C@H](CC(C)C)NC(=O)[C@H](Cc1ccc(O)cc1)NC(=O)[C@@H](NC(=O)[C@H](CO)NC(=O)[C@H](Cc1ccc(O)cc1)NC(=O)[C@H](CC(=O)O)NC(=O)[C@H](CO)NC(=O)[C@@H](NC(=O)[C@H](Cc1ccccc1)NC(=O)[C@@H](NC(=O)CNC(=O)[C@H](CCC(=O)O)NC(=O)C(C)(C)NC(=O)[C@@H](N)Cc1ccc(O)cc1)[C@@H](C)O)[C@@H](C)O)[C@@H](C)CC)C(=O)N[C@@H](C)C(=O)N[C@@H](CCC(N)=O)C(=O)N[C@@H](CCCNC(=N)N)C(=O)N[C@@H](C)C(=O)N[C@@H](Cc1ccccc1)C(=O)N[C@H](C(=O)N[C@@H](CCC(=O)O)C(=O)N[C@@H](Cc1c[nH]c2ccccc12)C(=O)N[C@@H](CC(C)C)C(=O)N[C@@H](CC(C)C)C(=O)N[C@@H](C)C(=O)N[C@@H](CCC(N)=O)C(=O)NCC(=O)N1CCC[C@H]1C(=O)N[C@@H](CO)C(=O)N[C@@H](CO)C(=O)NCC(=O)N[C@@H](C)C(=O)N1CCC[C@H]1C(=O)N1CCC[C@H]1C(=O)N1CCC[C@H]1C(=O)N[C@@H](CO)C(N)=O)C(C)C)C(=O)O) [Compound 33],0.031 nM,0.035 nM
H-Y[Aib]EGTFTSDYSIYLDKKAQRAFVNWLLAYG[1Nal]LDF-NH2 (SMILES CC[C@H](C)[C@H](NC(=O)[C@H](CO)NC(=O)[C@H](Cc1ccc(O)cc1)NC(=O)[C@H](CC(=O)O)NC(=O)[C@H](CO)NC(=O)[C@@H](NC(=O)[C@H](Cc1ccccc1)NC(=O)[C@@H](NC(=O)CNC(=O)[C@H](CCC(=O)O)NC(=O)C(C)(C)NC(=O)[C@@H](N)Cc1ccc(O)cc1)[C@@H](C)O)[C@@H](C)O)C(=O)N[C@@H](Cc1ccc(O)cc1)C(=O)N[C@@H](CC(C)C)C(=O)N[C@@H](CC(=O)O)C(=O)N[C@@H](CCCCN)C(=O)N[C@@H](CCCCN)C(=O)N[C@@H](C)C(=O)N[C@@H](CCC(N)=O)C(=O)N[C@@H](CCCNC(=N)N)C(=O)N[C@@H](C)C(=O)N[C@@H](Cc1ccccc1)C(=O)N[C@H](C(=O)N[C@@H](CC(N)=O)C(=O)N[C@@H](Cc1c[nH]c2ccccc12)C(=O)N[C@@H](CC(C)C)C(=O)N[C@@H](CC(C)C)C(=O)N[C@@H](C)C(=O)N[C@@H](Cc1ccc(O)cc1)C(=O)NCC(=O)N[C@@H](Cc1cccc2ccccc12)C(=O)N[C@@H](CC(C)C)C(=O)N[C@@H](CC(=O)O)C(=O)N[C@@H](Cc1ccccc1)C(N)=O)C(C)C) [Compound 26],0.39 nM,0.8 nM
H-Y[Aib]EGTFTSDYSIALDKIAQRAFVNWLVA[Aib]K-NH2 (SMILES CC[C@H](C)[C@H](NC(=O)[C@H](CCCCN)NC(=O)[C@H](CC(=O)O)NC(=O)[C@H](CC(C)C)NC(=O)[C@H](C)NC(=O)[C@@H](NC(=O)[C@H](CO)NC(=O)[C@H](Cc1ccc(O)cc1)NC(=O)[C@H](CC(=O)O)NC(=O)[C@H](CO)NC(=O)[C@@H](NC(=O)[C@H](Cc1ccccc1)NC(=O)[C@@H](NC(=O)CNC(=O)[C@H](CCC(=O)O)NC(=O)C(C)(C)NC(=O)[C@@H](N)Cc1ccc(O)cc1)[C@@H](C)O)[C@@H](C)O)[C@@H](C)CC)C(=O)N[C@@H](C)C(=O)N[C@@H](CCC(N)=O)C(=O)N[C@@H](CCCNC(=N)N)C(=O)N[C@@H](C)C(=O)N[C@@H](Cc1ccccc1)C(=O)N[C@H](C(=O)N[C@@H](CC(N)=O)C(=O)N[C@@H](Cc1c[nH]c2ccccc12)C(=O)N[C@@H](CC(C)C)C(=O)N[C@H](C(=O)N[C@@H](C)C(=O)NC(C)(C)C(=O)N[C@@H](CCCCN)C(N)=O)C(C)C)C(C)C) [Compound 3],0.022 nM,0.015 nM
H-Y[Aib]EGTFTSDYSIYLDKKAEKAFVNWLLA[Aib]K-NH2 (SMILES CC[C@H](C)[C@H](NC(=O)[C@H](CO)NC(=O)[C@H](Cc1ccc(O)cc1)NC(=O)[C@H](CC(=O)O)NC(=O)[C@H](CO)NC(=O)[C@@H](NC(=O)[C@H](Cc1ccccc1)NC(=O)[C@@H](NC(=O)CNC(=O)[C@H](CCC(=O)O)NC(=O)C(C)(C)NC(=O)[C@@H](N)Cc1ccc(O)cc1)[C@@H](C)O)[C@@H](C)O)C(=O)N[C@@H](Cc1ccc(O)cc1)C(=O)N[C@@H](CC(C)C)C(=O)N[C@@H](CC(=O)O)C(=O)N[C@@H](CCCCN)C(=O)N[C@@H](CCCCN)C(=O)N[C@@H](C)C(=O)N[C@@H](CCC(=O)O)C(=O)N[C@@H](CCCCN)C(=O)N[C@@H](C)C(=O)N[C@@H](Cc1ccccc1)C(=O)N[C@H](C(=O)N[C@@H](CC(N)=O)C(=O)N[C@@H](Cc1c[nH]c2ccccc12)C(=O)N[C@@H](CC(C)C)C(=O)N[C@@H](CC(C)C)C(=O)N[C@@H](C)C(=O)NC(C)(C)C(=O)N[C@@H](CCCCN)C(N)=O)C(C)C) [Compound 27],0.074 nM,0.3 nM
H-Y[Aib]EGTFTSDYSIYLDKK([γGlu-C16 diacid])AQRAFVNWLLA[Aib]K-NH2 (SMILES CC[C@H](C)[C@H](NC(=O)[C@H](CO)NC(=O)[C@H](Cc1ccc(O)cc1)NC(=O)[C@H](CC(=O)O)NC(=O)[C@H](CO)NC(=O)[C@@H](NC(=O)[C@H](Cc1ccccc1)NC(=O)[C@@H](NC(=O)CNC(=O)[C@H](CCC(=O)O)NC(=O)C(C)(C)NC(=O)[C@@H](N)Cc1ccc(O)cc1)[C@@H](C)O)[C@@H](C)O)C(=O)N[C@@H](Cc1ccc(O)cc1)C(=O)N[C@@H](CC(C)C)C(=O)N[C@@H](CC(=O)O)C(=O)N[C@@H](CCCCN)C(=O)N[C@@H](CCCCNC(=O)CC[C@H](NC(=O)CCCCCCCCCCCCCCC(=O)O)C(=O)O)C(=O)N[C@@H](C)C(=O)N[C@@H](CCC(N)=O)C(=O)N[C@@H](CCCNC(=N)N)C(=O)N[C@@H](C)C(=O)N[C@@H](Cc1ccccc1)C(=O)N[C@H](C(=O)N[C@@H](CC(N)=O)C(=O)N[C@@H](Cc1c[nH]c2ccccc12)C(=O)N[C@@H](CC(C)C)C(=O)N[C@@H](CC(C)C)C(=O)N[C@@H](C)C(=O)NC(C)(C)C(=O)N[C@@H](CCCCN)C(N)=O)C(C)C) [Compound 31],0.02 nM,0.022 nM
